The data set is described as follows: total protein half-life in vivo (active degradation + dilution); higher = more stable protein.
Setting [1] is: E. coli NCM3722 delta-clpP delta-lon delta-hslV, growth: N-lim chemostat, doubling time 6 h.
The mark [2] stands for this setting: E. coli NCM3722 delta-clpP, growth: N-lim chemostat, doubling time 6 h.
Setting [3] is: E. coli NCM3722 delta-hslV, growth: N-lim chemostat, doubling time 6 h.
The mark [4] stands for this setting: E. coli NCM3722 delta-lon, growth: N-lim chemostat, doubling time 6 h.
Where [5] appears, read: E. coli NCM3722 delta-smpB, growth: N-lim chemostat, doubling time 6 h.
[6] abbreviates: wild type E. coli NCM3722, growth: C-lim chemostat, doubling time 3 h.
[7] abbreviates: wild type E. coli NCM3722, growth: C-lim chemostat, doubling time 6 h.
The mark [8] stands for this setting: wild type E. coli NCM3722, growth: C-lim chemostat, doubling time 12 h.
Where [9] appears, read: wild type E. coli NCM3722, growth: N-lim chemostat, doubling time 6 h.
Setting [10] is: wild type E. coli NCM3722, growth: N-lim chemostat, doubling time 12 h.
Setting [11] is: wild type E. coli NCM3722, growth: P-lim chemostat, doubling time 6 h.
Setting [12] is: wild type E. coli NCM3722, growth: P-lim chemostat, doubling time 12 h.

± gives the standard deviation of the averaged measurements.

In the case of “MQEGQNRKTSSLSILAIAGVEPYQEKPGEEYMNEAQLAHFRRILEAWRNQLRDEVDRTVTHMQDEAANFPDPVDRAAQEEEFSLELRNRDRERKLIKKIEKTLKKVEDEDFGYCESCGVEIGIRRLEARPTADLCIDCKTLAEIREKQMAG [P0ABS1]”, the “total protein half-life in vivo” value amounted to 6.12 ± 0.34 h under setting [1]; 6.26 ± 1.2 h under setting [2]; 3.53 ± 0.55 h under setting [3]; 3.95 ± 0.44 h under setting [4]; 3.12 ± 0.035 h under setting [5]; 1.68 ± 0.14 h under setting [6]. In addition, the “total protein half-life in vivo” value by setting is: under setting [7], 3.27 ± 0.28 h; under setting [8], 5.07 ± 0.47 h; under setting [9], 3.65 ± 0.58 h; under setting [10], 7.03 ± 0.073 h; under setting [11], 3.71 ± 0.66 h; under setting [12], 9.06 ± 0.61 h.
Consider “MAAVNLRHIEIFHAVMTAGSLTEAAHLLHTSQPTVSRELARFEKVIGLKLFERVRGRLHPTVQGLRLFEEVQRSWYGLDRIVSAAESLREFRQGELSIACLPVFSQSFLPQLLQPFLARYPDVSLNIVPQESPLLEEWLSAQRHDLGLTETLHTPAGTERTELLSLDEVCVLPPGHPLAVKKVLTPDDFQGENYISLSRTDSYRQLLDQLFTEHQVKRRMIVETHSAASVCAMVRAGVGISVVNPLTALDYAASGLVVRRFSIAVPFTVSLIRPLHRPSSALVQAFSGHLQAGLPKLVTSLDAILSSATTA”, for which the “total protein half-life in vivo” value under setting [1] was determined as 7.04 ± 0.23 h; the “total protein half-life in vivo” value under setting [2] stood at 4.89 h; the “total protein half-life in vivo” value under setting [5] is 5.18 ± 2.1 h; the “total protein half-life in vivo” value under setting [6] was found to be 3.2 ± 0.26 h; the “total protein half-life in vivo” value under setting [7] was found to be 6.28 h; the “total protein half-life in vivo” value under setting [8] turned out to be 11.805 ± 0.0096 h. For the same sequence, the “total protein half-life in vivo” value runs as follows: under setting [9], 5.91 ± 0.071 h; under setting [10], above 16 h; under setting [12], 13.1 ± 0.34 h.
For “MSNKMTGLVKWFNADKGFGFISPVDGSKDVFVHFSAIQNDNYRTLFEGQKVTFSIESGAKGPAAANVIITD”, the “total protein half-life in vivo” value under setting [1] came out at 0.427 ± 0.069 h; the “total protein half-life in vivo” value under setting [2] amounted to 0.486 ± 0.036 h; the “total protein half-life in vivo” value under setting [3] is 0.454 h; the “total protein half-life in vivo” value under setting [4] came out at 0.617 ± 0.26 h; the “total protein half-life in vivo” value under setting [6] is 2.03 h; the “total protein half-life in vivo” value under setting [8] is 0.407 h. Further, the “total protein half-life in vivo” value was found to be 0.537 h under setting [9], 0.434 h under setting [10] and 1.16 h under setting [12].
As for “MLTRLREIVEKVASAPRLNEALNILVTDICLAMDTEVCSVYLADHDRRCYYLMATRGLKKPRGRTVTLAFDEGIVGLVGRLAEPINLADAQKHPSFKYIPSVKEERFRAFLGVPIIQRRQLLGVLVVQQRELRQYDESEESFLVTLATQMAAILSQSQLTALFGQYRQTRIRALPAAPGVAIAEGWQDATLPLMEQVYQASTLDPALERERLTGALEEAANEFRRYSKRFAAGAQKETAAIFDLYSHLLSDTRLRRELFAEVDKGSVAEWAVKTVIEKFAEQFAALSDNYLKERAGDLRALGQRLLFHLDDANQGPNAWPERFILVADELSATTLAELPQDRLVGVVVRDGAANSHAAIMVRALGIPTVMGADIQPSVLHRRTLIVDGYRGELLVDPEPVLLQEYQRLISEEIELSRLAEDDVNLPAQLKSGERIKVMLNAGLSPEHEEKLGSRIDGIGLYRTEIPFMLQSGFPSEEEQVAQYQGMLQMFNDKPVTLRTLDVGADKQLPYMPISEENPCLGWRGIRITLDQPEIFLIQVRAMLRANAATGNLNILLPMVTSLDEVDEARRLIERAGREVEEMIGYEIPKPRIGIMLEVPSMVFMLPHLAKRVDFISVGTNDLTQYILAVDRNNTRVANIYDSLHPAMLRALAMIAREAEIHGIDLRLCGEMAGDPMCVAILIGLGYRHLSMNGRSVARAKYLLRRIDYAEAENLAQRSLEAQLATEVRHQVAAFMERRGMGGLIRGGL”, the “total protein half-life in vivo” value under setting [1] was determined as 5.82 ± 0.99 h; the “total protein half-life in vivo” value under setting [2] was 5.146 ± 0.0092 h; the “total protein half-life in vivo” value under setting [3] was 4.39 ± 0.15 h; the “total protein half-life in vivo” value under setting [4] was found to be 4.53 ± 0.17 h; the “total protein half-life in vivo” value under setting [5] is 4.44 ± 0.084 h; the “total protein half-life in vivo” value under setting [6] came out at 3.06 ± 0.15 h. For the same sequence, the “total protein half-life in vivo” value is 5.78 ± 0.21 h under setting [7]; 10.7 ± 0.17 h under setting [8]; 4.37 ± 0.11 h under setting [9]; 7.03 ± 0.12 h under setting [10]; 6.54 ± 0.36 h under setting [11]; 11.5 ± 1.8 h under setting [12].
On to “MIVLVTGATAGFGECITRRFIQQGHKVIATGRRQERLQELKDELGDNLYIAQLDVRNRAAIEEMLASLPAEWCNIDILVNNAGLALGMEPAHKASVEDWETMIDTNNKGLVYMTRAVLPGMVERNHGHIINIGSTAGSWPYAGGNVYGATKAFVRQFSLNLRTDLHGTAVRVTDIEPGLVGGTEFSNVRFKGDDGKAEKTYQNTVALTPEDVSEAVWWVSTLPAHVNINTLEMMPVTQSYAGLNVHRQ”, for which the “total protein half-life in vivo” value worked out at 5.86 ± 0.16 h under setting [1]; 6.26 ± 1.3 h under setting [3]; 6.57 ± 1.4 h under setting [4]; 4.72 ± 0.53 h under setting [5]; 10.8 ± 0.87 h under setting [8]; 4.82 ± 0.56 h under setting [9]. Also, the “total protein half-life in vivo” value reads like this: under setting [10], 8.94 ± 0.42 h; under setting [11], 6.44 ± 0.14 h; under setting [12], 11.6 ± 1.9 h.
On to “MTLRKILALTCLLLPMMASAHQFETGQRVPPIGITDRGELVLDKDQFSYKTWNSAQLVGKVRVLQHIAGRTSAKEKNATLIEAIKSAKLPHDRYQTTTIVNTDDAIPGSGMFVRSSLESNKKLYPWSQFIVDSNGVALGAWQLDEESSAVVVLDKDGRVQWAKDGALTPEEVQQVMDLLQKLLK”, for which the “total protein half-life in vivo” value is 3.41 ± 0.29 h under setting [1]; 4.29 ± 0.11 h under setting [2]; 5.19 h under setting [3]; 5.62 ± 0.11 h under setting [4]; 5.29 ± 0.49 h under setting [5]; 2.78 ± 0.033 h under setting [6]. Moreover, the “total protein half-life in vivo” value under setting [7] worked out at 4.952 ± 0.046 h; the “total protein half-life in vivo” value under setting [8] came to 7.33 ± 1.6 h; the “total protein half-life in vivo” value under setting [9] is 5.43 ± 0.29 h; the “total protein half-life in vivo” value under setting [10] was 7.61 ± 2.1 h; the “total protein half-life in vivo” value under setting [11] came to 4.74 ± 1.5 h; the “total protein half-life in vivo” value under setting [12] came out at 8.359 ± 0.082 h.
In the case of “MKKIAAISLISIFIMSGCAVHNDETSIGKFGLAYKSNIQRKLDNQYYTEAEASLARGRISGAENIVKNDATHFCVTQGKKMQIVELKTEGVGLHGVARLTFKCGE”, the “total protein half-life in vivo” value runs as follows: under setting [2], 5.75 ± 0.084 h; under setting [3], 6.67 ± 0.98 h; under setting [5], 6.04 ± 0.45 h; under setting [6], 3.03 ± 0.37 h; under setting [7], 5.62 ± 0.76 h; under setting [8], 11.3 ± 0.14 h. The “total protein half-life in vivo” value reads like this: under setting [9], 6.8 ± 0.99 h; under setting [10], 13.1 ± 1.9 h.
In the case of “MFHCPLCQHAAHARTSRYITDTTKERYHQCQNVNCSATFITYESVQRYIVKPGEVHVVRPHPLPSGQQIMWM”, the “total protein half-life in vivo” value under setting [1] stood at 5.58 ± 1.3 h.

For the origin of these results see the supplement of paper PMC11246515.
